# Reference: the RNAGym collection of RNA variant scans (doi:10.7554/elife.80360)
# B1: HDV Ribozyme (parent)
# chain: GGCCGGCAUGGUCCCAGCCUCCUCGCUGGCGCCGGCUGGGCAACAUUCCGAGGGGACCGUCCCCUCGGUAAUGGCGAAUGGGACCCA
# Variants of: B1
# Experiment: self-cleavage, relative activity (ratio to wild type); higher = more cleavage; co-transcriptional
row,Variant,self-cleavage
1,A51G G81U,0.356
2,A51C U72G,0.529
3,A51C U72A,0.609
4,G50U G55U,0.906
5,G50U G55C,1.03
6,G52A C61G,0.897
7,G52A A78G,0.604
8,G53U C85A,0.931
9,G52C C85U,1.09
10,G54C G68A,0.858
11,A51C G76C,0.982
12,G52C G68A,0.564
13,G52C G68C,0.369
14,G52A A83C,0.374
15,G52U A71C,0.745
16,G50U G76C,1.19
17,G52U C62A,0.822
18,G52U C62G,0.106
19,G54A C64G,0.657
20,G53U C64U,0.853
21,G53A A71C,0.623
22,G54A U65C,0.696
23,G52A C66A,1.09
24,G53C C57U,0.969

row,Variant,self-cleavage
1,G53C C57G,1.14
2,G52A C64A,0.786
3,A51U G81A,0.601
4,G54A A70G,0.79
5,G52U C85A,0.784
6,A51C G59A,0.92
7,A51G G82C,0.322
8,A51G G82U,0.203
9,A51G G82A,0.125
10,A51G G55U,1.06
11,G50U C86G,0.811
12,A51G G59U,1.1
13,A51G G59C,0.895
14,G52U G81A,0.356
15,A51U C85A,0.956
16,G54C C61G,1.16
17,G54A C61A,1.07
18,G52C C75U,0.134
19,A51U C63G,0.208
20,G50U A87C,0.935
21,G53A A87U,0.992
22,G53A A87C,1.1
23,G54A G55C,1.04
24,G50U G59U,0.939

row,Variant,self-cleavage
1,G53A C84A,0.888
2,A51C G81A,0.323
3,G52U A83U,0.494
4,G52U A83C,0.259
5,G53U G82A,0.496
6,G53C U79C,0.47
7,G52C U72C,0.332
8,G54C A71C,0.608
9,G54C A71G,0.646
10,G52C C58G,1.13
11,G52A A70G,1.02
12,G52U C57A,0.903
13,G54A G81U,0.229
14,G52U U79C,0.59
15,G52U U79G,0.521
16,G50C U60G,1.03
17,G50C U60A,1.03
18,G53C C86U,0.799
19,G53U A71C,0.538
20,G53A G80A,0.218
21,G52U C63G,0.277
22,A51U A87U,1.03
23,A51U G74U,0.369
24,A51U G74C,0.243

row,Variant,self-cleavage
1,G52A G76U,0.983
2,A51U G54U,1.02
3,G53C C63U,0.997
4,G53A G59A,0.851
5,G54A G67A,0.698
6,G53U G55U,0.915
7,G50C U72A,0.789
8,A51G U65G,0.682
9,A51G U65A,0.7
10,G53A C85A,0.933
11,A51G C85G,0.984
12,A51G C85U,0.743
13,A51C A70C,1.03
14,G53U C86A,1.07
15,G52U G59U,0.984
16,G52U G59A,0.982
17,G53A C75U,0.256
18,G53A C75A,0.225
19,A51U A56U,1.25
20,G52C G67C,0.446
21,A51U U60C,0.594
22,A51U U60G,1.04
23,A51G U79C,0.354
24,G53C A56G,0.962

row,Variant,self-cleavage
1,G54A U60A,0.758
2,G54A U60C,1.06
3,A51C C57G,1.14
4,A51C A77U,0.429
5,A51C A77G,0.643
6,A51C G80U,0.199
7,G50C C84G,0.542
8,G52U A77C,0.54
9,G53A A78C,0.104
10,G53A A70C,1.06
11,G53A A70U,1.02
12,G53C A87G,0.971
13,G54C C64A,0.574
14,G53A G68A,0.743
15,G53A G68U,0.807
16,G53A G68C,0.604
17,G52C C61U,0.963
18,G50U C85A,0.742
19,G52U C58G,0.95
20,G52U C58A,0.888
21,G53C C61A,1.04
22,G52U G76A,0.936
23,G53A G82A,0.466
24,G50U A51U,1.05

row,Variant,self-cleavage
1,G50U G82A,0.499
2,G50U G73C,0.268
3,G52A U79A,0.95
4,G52A U79G,0.718
5,G54A A87U,0.922
6,A51C U60A,1.11
7,G50U U79C,0.507
8,A51G G53A,0.831
9,G52A C84A,0.736
10,G52U C64G,0.902
11,G52U C64U,0.881
12,G53U C75U,0.277
13,G54A U79G,0.643
14,G54A U79C,0.411
15,G52A U60C,1.08
16,G54C C62G,0.855
17,G53C C64U,0.703
18,G53C C64A,0.724
19,G53U G68U,0.703
20,G53U U65A,0.69
21,A51U G76A,0.961
22,A51U G76C,1.23
23,A51U G76U,1.11
24,G50C G80A,0.523

row,Variant,self-cleavage
1,G54A A71G,0.959
2,G54A A71C,0.753
3,G52C C86U,1.2
4,G52C C86A,0.997
5,G52A G68C,0.436
6,G52A G68U,0.591
7,G53C A71U,1.1
8,A51U G67C,0.78
9,G52U A87C,0.95
10,G54A,0.961
11,G54C,0.98
12,G53U G81C,0.385
13,A51U G55C,1.01
14,A51U G55A,1.17
15,G53C A78C,0.0678
16,G52U G55C,0.961
17,A51U A70C,0.886
18,A51U A70U,0.849
19,A51U A70G,0.972
20,G53C U60C,1
21,G54C A87G,0.936
22,A51C A78U,0.133
23,A51U G59C,0.755
24,A51U G59U,1.02

row,Variant,self-cleavage
1,A51U G59A,0.889
2,G52U G53A,0.849
3,A51U A78U,0.282
4,A51G A71G,0.752
5,G53A U65A,0.884
6,G52C U69C,0.943
7,A51U C57G,1.04
8,A51C G82U,0.386
9,A51C C66G,0.864
10,A51C C66A,1.09
11,G52A U69G,0.955
12,A51G G74C,0.148
13,A51U C84A,0.916
14,G52U A70G,0.878
15,G53U U60G,0.972
16,G53A G73A,0.44
17,G53A G73U,0.304
18,G53A G73C,0.265
19,G54A G82U,0.205
20,G52U G68A,0.517
21,G52C G80C,0.326
22,G50U C66G,0.787
23,G54C C58U,1.11
24,G54C C63A,1.02

row,Variant,self-cleavage
1,G52A C58A,1.14
2,G52A G53U,0.773
3,A51C C84A,0.675
4,G52A A56U,1.1
5,G50U A70U,0.946
6,A51U A77G,0.615
7,G53C G68A,0.577
8,G53C G68U,0.475
9,G53U A56C,0.831
10,G52U G74A,0.402
11,G52U G74U,0.629
12,A51U U69C,1.26
13,A51U G80C,0.208
14,A51G C86U,1.13
15,G50U U65G,0.945
16,G53U G76U,0.939
17,G53C G76U,0.967
18,G50C G59A,0.992
19,A51C C75U,0.141
20,A51C G53U,0.69
21,A51C G53A,0.491
22,G53A G76C,1.08
23,G50C U65A,0.919
24,G54A A56G,0.991

row,Variant,self-cleavage
1,G52C G53U,0.782
2,G52C C66A,1.03
3,G52U U65G,0.767
4,G52U G54U,0.784
5,G52U G54A,0.653
6,G50U A83G,0.818
7,G53C G80C,0.0755
8,G53C G80U,0.293
9,G53C G80A,0.307
10,G52C A87G,0.985
11,A51C C62A,0.623
12,A51G U60G,0.867
13,G50U,0.989
14,A51G G76A,0.91
15,A51G G76C,0.831
16,G53C G54A,1.08
17,G52C G54C,0.564
18,A51C A87G,0.862
19,G52C C62A,0.878
20,A51U U72A,0.628
21,A51U U72C,0.608
22,G53C C84G,0.696
23,G53C C84A,0.76
24,G53C A83G,0.815

row,Variant,self-cleavage
1,G53C A83U,0.332
2,G54C A83C,0.332
3,G53A C66U,1.05
4,G53A C66G,0.908
5,G53U G67U,0.715
6,G53U A70C,0.774
7,G53U C63A,1.2
8,G52C G73A,0.627
9,G50U G53U,0.735
10,A51C C86G,0.712
11,A51C C86A,0.872
12,A51C C86U,1.01
13,G50U C84G,0.724
14,G50U C84A,0.974
15,G50U G68U,0.576
16,G52U G67C,0.295
17,A51G C64U,0.892
18,A51G C64G,0.902
19,G50C G55C,1.14
20,G52C C84A,0.791
21,G53A A56C,0.787
22,G53A A56G,0.875
23,G52U A56G,0.816
24,G52U A56U,0.787

row,Variant,self-cleavage
1,G52A G55U,0.934
2,G52A C63A,0.774
3,G52A C57U,1.06
4,G52A C57G,1.01
5,G53A G81C,0.266
6,A51G C61A,0.954
7,A51G C61G,0.964
8,G53U A83C,0.6
9,G53U A83G,0.739
10,G52U C86G,1.01
11,G50C G74U,0.292
12,G50C G74A,0.471
13,G54A A78C,0.247
14,G54A A78G,0.332
15,G53U C84U,0.821
16,G52A A87G,0.86
17,G52U C75U,0.115
18,A51U G82A,0.543
19,A51U G82U,0.373
20,G54C A77G,0.831
21,A51C A56U,1.05
22,G52C U65C,1.18
23,G52C U65A,0.939
24,G53A C62G,0.511

row,Variant,self-cleavage
1,G53A C62A,1.05
2,G52A G54C,0.842
3,G50C G81U,0.263
4,G52U G82C,0.194
5,G50C G54U,0.374
6,G53C C85U,0.808
7,A51G U72G,0.615
8,A51G U72C,0.864
9,G53A G67A,1.02
10,G53A G67C,1.04
11,G50U A78U,0.229
12,G53A U79A,0.814
13,G52C G81A,0.563
14,G52U A78G,0.514
15,G52C A70U,0.782
16,G54A G76C,1.04
17,G52A A77U,0.694
18,G53A G54A,0.896
19,G52A G81C,0.259
20,G52A G73U,0.338
21,G52A G82A,0.439
22,G52A G82C,0.362
23,A51U C58A,1.04
24,A51U C58G,0.997

row,Variant,self-cleavage
1,G50U G80U,0.2
2,G50U G80A,0.486
3,A51C A83C,0.571
4,A51U A71C,0.856
5,G52U C61G,0.927
6,G53A C64G,0.769
7,A51G G52U,1.02
8,G53A U72A,0.642
9,G54C G59U,1.15
10,G52A G67U,0.843
11,G50U A77U,0.62
12,G52A C62A,0.732
13,G52A C62U,1.12
14,A51U C66A,0.764
15,G53C A77U,0.639
16,G53A G74A,0.554
17,A51G C57G,0.916
18,G54A U69A,0.982
19,G54A U69C,0.95
20,A51C A71C,0.692
21,G53C C58G,1
22,A51C C61U,0.914
